Measurements published in paper PMC5319395.

Target: T1, S. pombe Uba1 (S. pombe) (UniProt O94609)
T1 sequence: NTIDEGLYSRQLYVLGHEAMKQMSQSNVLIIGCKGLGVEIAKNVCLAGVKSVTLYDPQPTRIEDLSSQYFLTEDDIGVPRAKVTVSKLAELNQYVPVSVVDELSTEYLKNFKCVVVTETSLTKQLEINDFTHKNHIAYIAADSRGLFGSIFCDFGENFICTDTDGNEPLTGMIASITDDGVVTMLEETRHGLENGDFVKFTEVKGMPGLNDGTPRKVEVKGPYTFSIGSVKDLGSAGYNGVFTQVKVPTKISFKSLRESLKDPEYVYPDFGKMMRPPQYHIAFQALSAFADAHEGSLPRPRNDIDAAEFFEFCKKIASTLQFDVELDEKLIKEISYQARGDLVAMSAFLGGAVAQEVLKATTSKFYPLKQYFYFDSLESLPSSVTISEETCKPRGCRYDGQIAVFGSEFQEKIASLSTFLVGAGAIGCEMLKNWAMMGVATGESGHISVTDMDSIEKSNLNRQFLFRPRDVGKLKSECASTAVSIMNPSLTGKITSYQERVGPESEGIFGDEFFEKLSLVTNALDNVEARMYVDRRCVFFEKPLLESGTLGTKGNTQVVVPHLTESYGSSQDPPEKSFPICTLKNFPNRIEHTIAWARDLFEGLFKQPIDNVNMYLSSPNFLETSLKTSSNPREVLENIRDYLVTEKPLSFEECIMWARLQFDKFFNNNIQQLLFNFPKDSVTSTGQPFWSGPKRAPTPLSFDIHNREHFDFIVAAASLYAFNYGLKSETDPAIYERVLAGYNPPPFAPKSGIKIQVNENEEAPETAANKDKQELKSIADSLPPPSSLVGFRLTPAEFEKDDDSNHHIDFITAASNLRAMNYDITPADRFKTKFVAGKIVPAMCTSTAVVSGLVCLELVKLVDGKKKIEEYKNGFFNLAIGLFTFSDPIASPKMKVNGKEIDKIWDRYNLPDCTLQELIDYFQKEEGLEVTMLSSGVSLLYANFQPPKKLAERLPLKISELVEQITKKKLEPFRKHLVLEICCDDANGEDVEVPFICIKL

B1: Ubc15 L67F (enzyme)
chain: MPSSASEQLLRKQLKEIQKNPPQGFSVGLVDDKSIFEWEVMIIGPEDTLYEGGFFHATLSFPQDYPFMPPKMKFTTEIWHPNVHPNGEVCISILHPPGDDKYGYEDAGERWLPVHSPETILISVISMLSSPNDESPANIDAAKEFRENPQEFKKRVRRLVRRSIEMI
Binder B1 has a fold decrease in E1-E2 Ub thioester transfer assay (Figure 2E) of 2 fold.
